Test results taken from PMC7315649.

Target: human plasminogen (human)
Test: SPR; BIAcore T100 at 25°C; plasminogen amine-coupled to a CM-5 chip (5.0 ng/mm^2); dispersin at 2.5–120 μM in HBS-P (10 mM HEPES pH 7.4, 150 mM NaCl, 0.005% P20) at 30 μL/min; 1:1 model

Substance: recombinant dispersin (mature dispersin of enteroaggregative Escherichia coli strain 17-2) (from UniProt P43464 1-265) (natural protein)
- Kd: 282 nM
- koff: 0.0016 s⁻¹
- kon: 5680 M⁻¹ s⁻¹
